In data set [1] the target is HCV NS5B591 (full length) (Hepatitis C virus (BK strain, genotype 1b)) (UniProt P26663). The conditions noted are these: reference enzyme; [3H]UTP incorporation, 5 mM MgCl2, 50 mM NaCl, pH 7.5, 25 C, 90 min.
For data set [2], the target named is HCV NS5B536 (Hepatitis C virus (BK strain, genotype 1b)) (UniProt P26663). The conditions noted are these: [3H]UTP incorporation, 5 mM MgCl2, 50 mM NaCl, pH 7.5, 25 C, 90 min.
Data set [3] concerns the target HCV NS5B570 (Hepatitis C virus (BK strain, genotype 1b)) (UniProt P26663). The following applies: [3H]UTP incorporation, 5 mM MgCl2, 50 mM NaCl, pH 7.5, 25 C, 90 min.
Data set [4] concerns the target HCV NS5B531 (Hepatitis C virus (BK strain, genotype 1b)) (UniProt P26663). The following applies: [3H]UTP incorporation, 5 mM MgCl2, 50 mM NaCl, pH 7.5, 25 C, 90 min.
Data set [5] concerns the target HCV NS5B544 (Hepatitis C virus (BK strain, genotype 1b)) (UniProt P26663). The conditions noted are these: [3H]UTP incorporation, 5 mM MgCl2, 50 mM NaCl, pH 7.5, 25 C, 90 min.
The target in data set [6] is HCV NS5B552 (Hepatitis C virus (BK strain, genotype 1b)) (UniProt P26663). The conditions noted are these: [3H]UTP incorporation, 5 mM MgCl2, 50 mM NaCl, pH 7.5, 25 C, 90 min.

With “HCV NS5B 3' end + 3'UTR (polyU and 3'X) template RNA, about 450 nt”, the activity in data set [1] was 100 % of NS5B591; in data set [2] it was 2110 % of NS5B591; in data set [3], 3 % of NS5B591; in data set [4], 2150 % of NS5B591; in data set [5] it was 2010 % of NS5B591; in data set [6] it was 147 % of NS5B591.

Values taken from patent US20070042353.
